Data from US20230391862A1, “METHOD OF S[…] RESPONSE TO VECTOR-DELIVERED T[…]” (Scout Bio, Inc., priority 2020, published 2023).
Where a chain is given by its changes, count along the chain named.

B1: feNGF mAb: recombinant purified felinized anti-NGF monoclonal antibody, clone JCV4, SEQ ID NOs: 1 and 2 (antibody, V domains shown)
VH: QVQLMESGADLVQPSESLRLTCVASGLSLTNNNVNWVRQAPGKGLEWMGGVWAGGATDYNSALKSRLTITRDTSKNTVFLQMHSLQSEDTATYYCARDGGYSSSTLYAMDAWGQGTTVTVSA
VL: DIEMTQSPLSLSATPGETVSISCRASEDIYNALAWYLQKPGRSPRLLIYNTDTLHTGVPDRFSGSGSGTDFTLKISRVQTEDVGVYFCQHYFHYPRTFGQGTKLELK
modifications: felinized anti-NGF antibody VH Sequence; felinized anti-NGF antibody VL Sequence
B2: fNGFV5_1 mAb: purified felinized anti-NGF monoclonal antibody, clone V5_1, SEQ ID NOs: 2 and 5 (antibody, V domains shown)
VL: B1 VL
VH: B1 VH with M5V, A9G, S15G, E16G, L27F, L63V
modifications: felinized anti-NGF antibody VL Sequence; felinized anti-NGF antibody (V5_1) VH Sequence

Legend:
[1] = Serum level of feNGF mAb in cats by NGF-binding ELISA; assay type: in vivo, cat
Protocol: The concentration of FeNGF mAb in cat serum was determined using an NGF-binding ELISA. ELISA plates were coated with 0.1 μg/ml muNGF and blocked with PBS/0.05% Tween 20/1% BSA. muNGF coated wells were incubated for 1 h at room temperature with serum diluted in PBS/0.05% Tween 20/1% BSA in the amount of 100 μl/well. FeNGF antibody concentrations ranging from 1.56 ng/ml to 100 ng/ml were used to establish a binding curve. Well plates were washed following incubation and were then incubated with a 1/10,000 dilution of goat anti-feline IgG-HRP in PBS/0.05% Tween 20/1% BSA. Plates were washed with PBS/0.05% Tween 20 and developed by the addition of 3,3′,5,5′-tetramethylbenzidine (TMB) substrate. Development was stopped by the addition of 2M H2SO4 and the absorbance read at 450 nm and background was subtracted from the resulting reading.
The concentration of feline anti-NGF mAb in cat serum was determined using an NGF-binding ELISA. […] Development was stopped by the addition of 2M H2SO4 and absorbance read at 450 nm and background was subtracted.
The concentration of feline anti-NGF mAbs in cat serum was determined using an NGF-binding ELISA. […] Development was stopped by the addition of 2M H2SO4 and absorbance read at 450 nm and background was subtracted.

[2] = test system: anti-transgene product antibody (ATPA) response, anti-(anti-feNGF mAb) antibodies; assay: Bridging immunoassay for anti-transgene product antibodies (ATPA) in cat serum after IM AAV; conditions: cats; for ATPA up to 98 days post AAV administration: mAb 2 mg/kg SC 14 days before AAV IM 2.5×10^11 gc/kg
Protocol: A bridging Immunoassay with acid dissociation was used to evaluate the presence of anti-(anti-feNGF mAb) antibodies in the cat serum. Samples were pre-treated with acid to disrupt any existing ATPA-feNGF mAb complexes before assessment in the bridging assay. Samples were diluted to 2.5% in 300 mM acetic acid to enable ATPA-feNGF mAb complex dissociation before analysis. Acidified samples were incubated for 40 min with shaking at ambient temperature. 25 μl of the acidified samples were transferred to wells of a 96 well plate containing 90 μL of master-mix reagent (0.125 μg/mL of biotinylated feNGF mAb and 0.125 μg/mL of ruthenylated feNGF mAb with 1% Meso Scale Discovery (MSD) Blocker A in PBS-T) and 11 μL 1.2M Tris solution (pH 9.5). Acidified samples plus master-mix reagents were incubated at ambient temperature in the dark for 60 min with shaking. Simultaneously, Streptavidin-coated MSD plates were blocked for 60 min at ambient temperature with 200 μL/well of PBS-T buffer containing 3% (MSD) Blocker A. The Streptavidin-coated MSD plates were then washed and 25 μl of the acidified sample plus master-mix reagent were transferred to the plates which were then incubated at ambient temperature in the dark for 60-90 min with shaking. The MSD plates were washed and then 150 μL of 2×MSD Read T-Buffer was added per well before the plates were read on an MSD MESO QuickPlex SQ 120 instrument. The resulting response was recorded as Relative Light Units (RLU).
A bridging immunoassay with acid dissociation was used to evaluate the presence of anti-(anti-feNGF mAb) antibodies in the cat serum at timepoints when the circulating levels of drug were at the lowest (pre-dose). Samples were pre-treated with acid to disrupt any existing ADA-feNGF mAb complexes before assessment in the bridging assay. Briefly, samples were diluted to 2.5% in 300 mM acetic acid to enable ADA-drug complex dissociation before analysis. Acidified samples were incubated for 40 min with shaking at ambient temperature. 25 μl of the acidified samples were transferred to wells of a 96 well plate containing 90 μL of master-mix reagent (0.125 μg/mL of biotinylated feNGF mAb and 0.125 μg/mL of ruthenylated feNGF mAb with 1% Meso Scale Discovery (MSD) Blocker A in PBS-T) and 11 μL 1.2M Tris solution (pH 9.5). Acidified samples plus master-mix reagents were incubated at ambient temperature in the dark for 60 min with shaking. Simultaneously, Streptavidin-coated MSD plates were blocked for 60 min at ambient temperature with 200 μL/well of PBS-T buffer containing 3% (MSD) Blocker A.
The Streptavidin-coated MSD plates were then washed and 25 ul of the acidified sample plus master-mix reagent were transferred to the plates which were then incubated at ambient temperature in the dark for 60-90 min with shaking. The MSD plates were washed, 150 μL of 2×MSD Read T-Buffer was added per well before the plates were read on an MSD MESO QuickPlex SQ 120 instrument. The resulting response was recorded as Relative Light Units (RLU).
A bridging immunoassay with acid dissociation was used to evaluate the presence of anti-(anti-feNGF mAb) antibodies in the cat serum at timepoints when the circulating levels of drug were at the lowest (pre-dose). Samples were pre-treated with acid to disrupt any existing ADA-feNGF mAb complexes before assessment in the bridging assay. Briefly, samples were diluted to 2.5% in 300 mM acetic acid to enable ADA-drug complex dissociation before analysis. Acidified samples were incubated for 40 min with shaking at ambient temperature.

Row | Molecule | expression of feNGF mAb in the serum ([1]; mAb 2 mg/kg SC day −14, then AAV.CB7.feNGF IM 2.5×10^11 gc/kg day 0 (FIG. 4B)) | ATPA up to 98 days post AAV administration ([2]; Example 7) | ATPA response after pre-treatment ([2]; pre-treatment, then AAV.CB7.feNGF IM 2.5×10^11 gc/kg at day 0 (FIG. 4E-4H)) | detectable serum antibody ([1]; Example 8, high dose (1×10^13 gc/cat) cohort, the animal with ATPA response) | ATPA signal following the recombinant mAb administration ([2]; Example 7, V5_1 pre-treatment group, did not persist, did not affect transgene expression (FIG. 10F)) | treatment induced ATPA response ([2]; Example 8, mAb 2 mg/kg SC day −14, then high dose of AAV (1×10^13 gc/cat)) | treatment-emergent immunogenicity up to 56 days post AAV administration ([2]; Example 8, mAb 2 mg/kg SC day −14, then medium dose of AAV (1×10^12 gc/cat))
1 | B1 | strong, sustained expression of feNGF mAb was observed | no evidence of ATPA was observed | no ATPA response was observed | – | – | – | –
2 | B2 | – | no evidence of ATPA was observed | – | sudden loss in detectable serum antibody | low, transient ATPA signal was observed in one animal | A single treatment induced ATPA response was observed | no evidence of treatment-emergent immunogenicity was observed
